# Test results from patent US20240124575A1.
# Like-named read-outs stand apart in the source and are kept apart here.
# What was measured:
# [1] = target: human CD33 on U937 cells (endogenous) (human) (UniProt P20138); assay: FACS, U937 cells
# [2] = target: human CD33 on CHO-K1 cells (CHO-K1-human CD33) (human) (UniProt P20138); assay: FACS, clone CHO-K1-human CD33 C8
# [3] = target: human CD33 on CHO-K1 cells (CHO-K1-human CD33) (human) (UniProt P20138); assay: FACS, clone CHO-K1-human CD33 B8
# [4] = target: human CD33 on CHO-K1 cells (CHO-K1-human CD33) (human) (UniProt P20138); assay: FACS, clone CHO-K1-human CD33 B11
# [5] = target: murine CD33 protein (murine) (UniProt Q63994); assay: ELISA, coated murine CD33, antibody 100 nM
# [6] = target: monkey CD33 protein (monkey); assay: ELISA, coated monkey CD33, antibody 100 nM
# [7] = target: monkey CD33 protein (monkey); assay: ELISA, coated monkey CD33, antibody 1 nM
# [8] = target: murine CD33 protein (murine) (UniProt Q63994); assay: ELISA, coated murine CD33, antibody 0.0001 nM
# [9] = target: murine CD33 protein (murine) (UniProt Q63994); assay: ELISA, coated murine CD33, antibody 0.001 nM
# [10] = target: monkey CD33 on HEK293T-monkey CD33 cells (monkey); assay: FACS on HEK293T-monkey CD33 cells
# [11] = target: monkey CD33 protein (monkey); assay: ELISA, coated monkey CD33, antibody 0.0001 nM
# [12] = target: monkey CD33 protein (monkey); assay: ELISA, coated monkey CD33, antibody 0.01 nM
# [13] = target: monkey CD33 protein (monkey); assay: ELISA, coated monkey CD33, antibody 10 nM
# [14] = target: murine CD33 protein (murine) (UniProt Q63994); assay: ELISA, coated murine CD33, antibody 0.01 nM
# [15] = target: monkey CD33 protein (monkey); assay: ELISA, coated monkey CD33, antibody 1 nM; remark: listed apart in the source
# [16] = target: monkey CD33 protein (monkey); assay: ELISA, coated monkey CD33, antibody 100 nM; remark: listed apart in the source
# [17] = target: monkey CD33 on HEK293T-monkey CD33 cells (monkey); assay: FACS on HEK293T-monkey CD33 cells; remark: listed apart in the source
# [18] = target: monkey CD33 protein (monkey); assay: ELISA, coated monkey CD33, antibody 0.1 nM
# [19] = target: monkey CD33 protein (monkey); assay: ELISA, coated monkey CD33, antibody 0.001 nM
# [20] = target: monkey CD33 protein (monkey); assay: ELISA, coated monkey CD33, antibody 0.01 nM; remark: listed apart in the source
# [21] = target: monkey CD33 protein (monkey); assay: ELISA, coated monkey CD33, antibody 10 nM; remark: listed apart in the source
# [22] = target: monkey CD33 protein (monkey); assay: ELISA, coated monkey CD33, antibody 0.001 nM; remark: listed apart in the source
# [23] = target: murine CD33 protein (murine) (UniProt Q63994); assay: ELISA, coated murine CD33, antibody 10 nM
# [24] = target: murine CD33 protein (murine) (UniProt Q63994); assay: ELISA, coated murine CD33, antibody 1 nM
# [25] = target: monkey CD33 protein (monkey); assay: ELISA, coated monkey CD33, antibody 0.0001 nM; remark: listed apart in the source
# [26] = target: murine CD33 protein (murine) (UniProt Q63994); assay: ELISA, coated murine CD33, antibody 0.1 nM
# Sequence of human CD33 on CHO-K1 cells (CHO-K1-human CD33) (human) (P20138 18-364): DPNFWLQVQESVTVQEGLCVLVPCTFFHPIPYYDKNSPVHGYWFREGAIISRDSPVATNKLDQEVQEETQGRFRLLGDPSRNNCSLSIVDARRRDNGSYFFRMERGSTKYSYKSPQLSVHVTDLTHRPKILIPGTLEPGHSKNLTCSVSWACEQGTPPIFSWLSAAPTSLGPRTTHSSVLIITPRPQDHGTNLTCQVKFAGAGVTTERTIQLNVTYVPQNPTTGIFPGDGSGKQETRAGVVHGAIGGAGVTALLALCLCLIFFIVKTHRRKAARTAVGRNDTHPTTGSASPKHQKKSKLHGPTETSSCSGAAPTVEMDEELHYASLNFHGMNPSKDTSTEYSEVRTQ
# Sequence of murine CD33 protein (murine) (Q63994 18-240 limits assumed): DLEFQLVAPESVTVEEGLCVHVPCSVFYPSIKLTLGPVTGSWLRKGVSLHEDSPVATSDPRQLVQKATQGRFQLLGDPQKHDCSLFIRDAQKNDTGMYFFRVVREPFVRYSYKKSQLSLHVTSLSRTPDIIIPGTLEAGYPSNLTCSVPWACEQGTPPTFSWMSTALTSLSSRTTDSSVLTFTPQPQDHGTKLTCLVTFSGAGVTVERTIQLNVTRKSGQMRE
# Sequence of human CD33 on U937 cells (endogenous) (human) (P20138 18-364): as the sequence (P20138 18-364) above
substance,measurement,setting,value
IgG subtype control (antibody),Mean fluorescence intensity of cells,[1],114 MFI
same,Mean fluorescence intensity of cells,[2],30.9 MFI
same,Mean fluorescence intensity of cells,[3],30.9 MFI
same,Mean fluorescence intensity of cells,[4],30.9 MFI
anti-hel-hIgG1 antibody,OD450,[5],0.08 OD450
same,OD450,[6],0.06 OD450
same,OD450,[7],0.04 OD450
same,OD450,[8],0.06 OD450
same,OD450,[9],0.06 OD450
same,Max MFI,[10],107 MFI
same,OD450,[11],0.06 OD450
same,OD450,[12],0.05 OD450
same,OD450,[13],0.05 OD450
same,OD450,[14],0.06 OD450
same,OD450,[15],0.05 OD450
same,OD450,[16],0.08 OD450
same,Max MFI,[17],322 MFI
same,OD450,[18],0.05 OD450
same,OD450,[19],0.07 OD450
same,OD450,[20],0.04 OD450
same,OD450,[21],0.06 OD450
same,OD450,[22],0.04 OD450
same,OD450,[23],0.07 OD450
same,OD450,[24],0.06 OD450
same,OD450,[25],0.05 OD450
same,OD450,[26],0.06 OD450
